Data on 34 sequences can be found in the supplement of paper PMC9170038.

In the data set the test system is MS2 coat protein. As to the kind of experiment: apparent KD of MS2 coat protein; designed switch direction (-1 OFF switch, 1 ON switch): -1; higher = weaker reporter binding. A digest of the protocol:
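Apparent KD, taken as the median over clusters for each design, was obtained by curve-fitting normalised cluster fluorescence. Designed RNA switches had been transcribed on Illumina chips by stalled E. coli RNA polymerase and titrated with SNAP-549-labelled MS2 coat protein, doubling from 0.7 or 1.5 nM to 3 µM.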

Setting [1] is: input ligand: microRNA oligo, concentration not stated.
Where [2] appears, read: Eterna round: R95, input ligand: microRNA oligo, concentration not stated.
[3] abbreviates: Eterna round: R95, input ligand: FMN 200 uM.
[4] abbreviates: Eterna round: R95, input ligand: none.

Consider “GUGGGUUACAUGAGGAUCACCCAUGUAGAGUGGGAAGAGAGAUAGGAUAUGAUGUGAGAAUUAUAUCAGAAGGAUCGAGACUCG [AK ExNG3-2.4] (Eterna round: R96, puzzle: Exclusion NG 3)”, for which the “apparent KD of MS2 coat protein” value (input ligand: FMN 200 uM) stood at 268 nM, the “apparent KD of MS2 coat protein” value under setting [1] turned out to be 136 nM and the “apparent KD of MS2 coat protein” value (input ligand: none) amounted to 214 nM.

On to “GUGGUACAUGAGGAUCACCCAUGUCAGGAUAUCGCGUGGUUUUUUGCGGCCGCGCGCGCGAGAAGGGACGUCUU (puzzle: Exclusion 1)”, for which, under setting [2], the “apparent KD of MS2 coat protein” value was determined as 29.1 nM.

With “GUGGUACAUGAGGAUCACCCAUGUUAGGAUAUCGCGUGAGGUUUUACUUCCACACACACGAGAAGGGACGUCUU (puzzle: Exclusion 1)”, the “apparent KD of MS2 coat protein” value under setting [2] was 41 nM.

Regarding “GUGUAACUACACGGGCUCAACAUGAGGAUCACCCAUGUCAUACACGCAAGCUUUCUGCUUGUCUUAUCUGUCCGUGA [Acela] (puzzle: Sensor v3, turn-off variant 1)”, the “apparent KD of MS2 coat protein” value is 13.2 nM under setting [3], 12.5 nM under setting [2] and 10.4 nM under setting [4].

“GUGUACAGAGGAUAUACAUGAGGAUCACCCAUGUGAAUAAGAUAGAAUAAGAUAAAGUGUAGAAGGCUGAGUGU [Excluse me!!! 1 - Jieux - Exclusion 3] (puzzle: Exclusion 3)”: the “apparent KD of MS2 coat protein” value is, setting by setting: under setting [3], 28.8 nM; under setting [2], 35.7 nM; under setting [4], 38.4 nM.

Consider “GUGUACAGAGGAUAUACUCAUGGAGUUACGAAAGUAACUUCACAUGAGGAUCACCCAUGUAGAAGGCUGUACAC [Dot plot directed v9] (puzzle: Exclusion 2)”, for which, under setting [2], the “apparent KD of MS2 coat protein” value is 341 nM.

As for “GUGUACAGAGGAUAUGCUUGAAUCUAGCGAAGCUAGGUUCGACAUGAGGAUCACCCAUGUAGAAGGCUGUACAC [Dot plot directed A v3] (puzzle: Exclusion 2)”, under setting [2], the “apparent KD of MS2 coat protein” value stood at 13.4 nM.

As to “GUGUACGGAGGAUAUAUGUGGGCAGCAUACGCUGCAGCUUCACAUGAGGAUCACCCAUGUAGAAGGCUGUACAC [Mat - Exclusion 2 - Mod of Hyphema - D102] (puzzle: Exclusion 2)”, the “apparent KD of MS2 coat protein” value under setting [2] was 21.4 nM.

As for “GUGUACGGAGGAUAUGCUGGAAUCUAGCGAAGCUAGGUUCCACAUGAGGAUCACCCAUGUAGAAGGUCGUACAC [Dot plot directed A v8] (puzzle: Exclusion 2)”, the “apparent KD of MS2 coat protein” value under setting [2] was found to be 29.6 nM.

Turning to “GUGUACGUAGGAUAUGCUGGAAUCUAGCGAAGCUAGGUUCCACAUGAGGAUCACCCAUGUAGAAGGGCGUACAC [Dot plot directed A v9] (puzzle: Exclusion 2)”, the “apparent KD of MS2 coat protein” value under setting [2] is 132 nM.

As for “GUGUAGAUAGGAUAUACGUGAGUCUAGCGAAGCUAGAUUCUACAUGAGGAUCACCCAUGUAGAAGGGUCUACAC [Fiskers Ex 2 - 27] (puzzle: Exclusion 2)”, the “apparent KD of MS2 coat protein” value under setting [2] was determined as 15.1 nM.

For the sequence “GUGUAGGUAGGAUAUACAUGAGGAUCACCCAUGUGAAUAAGAUAGAAUAAGAUAAAGUGUAGAAGGACUAGUGU [Excluse me!!! 14 - Jieux - Exclusion 3] (puzzle: Exclusion 3)”, the “apparent KD of MS2 coat protein” value under setting [2] worked out at 38.7 nM.

“GUGUAGUCAGGAUAUACAUAGGAAGAGAAGAGAAGAGAAGUACAUGAGGAUCACCCAUGUAGAAGGGACAGUGU [Excluse me!! 6 - Jieux - Exclusion 2] (puzzle: Exclusion 2)”: the “apparent KD of MS2 coat protein” value under setting [2] turned out to be 21.7 nM.

Turning to “GUGUAGUCAGGAUAUACAUAGGAAGAUAAGAUAAGAUAAGCACAUGAGGAUCACCCAUGUAGAAGGGACAGUGU [Excluse me!! 1 - Jieux - Exclusion 2] (puzzle: Exclusion 2)”, the “apparent KD of MS2 coat protein” value runs as follows: under setting [3], 159 nM; under setting [2], 74.2 nM; under setting [4], 122 nM.

On to “GUGUAGUCAGGAUAUACAUGAGGAUCACCCAUGUGAAUAAGAUAGAAUAAGAUAAAGUGUAGAAGGGAUAGUGU [Excluse me!!! 22 - Jieux - Exclusion 3] (puzzle: Exclusion 3)”, for which the “apparent KD of MS2 coat protein” value under setting [2] was 30.7 nM.

Turning to “GUGUAGUGAGGAUAUACAUGAGGAUCACCCAUGUGAAUAAGAUAGAAUAAGAUAAAGUGUAGAAGGCAUAGUGU [Excluse me!!! 21 - Jieux - Exclusion 3] (puzzle: Exclusion 3)”, the “apparent KD of MS2 coat protein” value under setting [2] was 39.3 nM.

For “GUGUAGUGAGGAUAUCGUUGUUAGGAGGAGAAGGUAGGAGGCGAGAAGGCACAUGAGGAUCACCCAUGUAUGAG [JR_Exclu4_Sub063] (puzzle: Exclusion 4)”, the “apparent KD of MS2 coat protein” value under setting [2] was found to be 23.5 nM.

Take “GUGUGCAGAGGAUAUACAGAGGAAAAGAAAAGAUAAGUGAUACAUGAGGAUCACCCAUGUAGAAGGCUGAGUGU [Excluse me!! 21 - Jieux - Exclusion 2] (puzzle: Exclusion 2)”: the “apparent KD of MS2 coat protein” value was 32.8 nM under setting [3], 21.1 nM under setting [2] and 22.7 nM under setting [4].

For the sequence “GUGUGCAGAGGAUAUACAGAGGAAGAGAAGAGAAGAGAAGGACAUGAGGAUCACCCAUGUAGAAGGCUGAGUGU [Excluse me!! 19 - Jieux - Exclusion 2] (puzzle: Exclusion 2)”, the “apparent KD of MS2 coat protein” value reads like this: under setting [3], 33.7 nM; under setting [2], 30.2 nM; under setting [4], 31.6 nM.

“GUGUGCUGAGGAUAUACAGAGGAAGAUAAUACAAUAUAAGUACAUGAGGAUCACCCAUGUAGAAGGCAGAGUGU [Excluse me!! 11 - Jieux - Exclusion 2] (puzzle: Exclusion 2)”: under setting [2], the “apparent KD of MS2 coat protein” value worked out at 23.4 nM.

As to “GUGUUACAUGAGGAUCACCCAUGUGAGGAUAUCAUGCUUCGUAGUAAACUACGAAGUGUGAGAAGGCAUAUGAC [Omei Ex1 E4] (Eterna round: R97, puzzle: Exclusion 1)”, the “apparent KD of MS2 coat protein” value (input ligand: FMN 200 uM) is 50.7 nM and the “apparent KD of MS2 coat protein” value (input ligand: none) is 56.5 nM.

For “GUGUUGCGAGGAUAUAUAAGGGUAUGUUCUUAGGAUAUGGAACAUGAGGAUCACCCAUGUAGAAGGUGCAUAUC [JR_Ex2_Sub047] (Eterna round: R97, puzzle: Exclusion 2)”, the “apparent KD of MS2 coat protein” value runs as follows: (input ligand: FMN 200 uM) 67.8 nM; (input ligand: none) 33.9 nM.

As for “GUGUUUGAUGAGGAUAUCGAUGUGGGUAUAUAGCGAGAAGGCAUUACAUGAGGAUCACCCAUGUAGUGUGGGUU [JR_Ex6_Sub024] (Eterna round: R97, puzzle: Exclusion 6)”, the “apparent KD of MS2 coat protein” value runs as follows: (input ligand: FMN 200 uM) 33.3 nM; (input ligand: none) 35.6 nM.

Take “GUGUUUGGUGUAGGAUAUGUUUGUGGGUCGCGGGCAGAAGGACAUGAGGAUCACCCAUGUUUCGGGCUUGGCUUGGGCGGGCGC [-21, -19 kcal and 14% A] (Eterna round: R96, puzzle: Exclusion NG 1)”: the “apparent KD of MS2 coat protein” value turned out to be 16.7 nM (input ligand: FMN 200 uM), 12.4 nM under setting [1] and 17.6 nM (input ligand: none).

Take “GUUAAACAUGAGGAUCACCCAUGUAAGGAUAUGCUGAGGUCGCGCUGACGUGACUGAAGCAGAAGGUACAAAUG [Mat - Mod of JL D62] (puzzle: Exclusion 1)”: the “apparent KD of MS2 coat protein” value is, setting by setting: under setting [3], 85.4 nM; under setting [2], 48.7 nM; under setting [4], 73.9 nM.

“GUUAACGAUGAGGAUAUAUGAUAUCAAAGCAUCAUAGAAGGCAUCACAUGAGGAUCACCCAUGUGAUCUUCUUU [jl-ex6-4.10 ViennaUCT mod] (Eterna round: R97, puzzle: Exclusion 6)”: the “apparent KD of MS2 coat protein” value came out at 83.6 nM (input ligand: FMN 200 uM) and 15.2 nM (input ligand: none).

As to “GUUAACGUAGGAUAUUAGUACAUGAACAUGAGGAUCACCCAUGUGAGGUAGGUCUAAGAAUAAGAAGGGCGAAGAA [EX5 #27] (Eterna round: R97, puzzle: Exclusion 5)”, the “apparent KD of MS2 coat protein” value came out at 108 nM (input ligand: FMN 200 uM) and 185 nM (input ligand: none).

Turning to “GUUAACGUAGGAUAUUAGUACAUGAACAUGAGGAUCACCCAUGUGAGGUGGGUCUUAGAUUAAGAAGGGCGAAGAA [EX5 #30] (Eterna round: R97, puzzle: Exclusion 5)”, the “apparent KD of MS2 coat protein” value is 525 nM (input ligand: FMN 200 uM) and 867 nM (input ligand: none).

On to “GUUAAGUGAGGAUAUGGUGAGUAGUGCCUGAGCGCUGCUCACCAGAAGGCACAUGAGGAUCACCCAUGUAUAAC [Mat - Exclusion 4 - Mod of JL - D16] (puzzle: Exclusion 4)”, for which the “apparent KD of MS2 coat protein” value under setting [2] was determined as 19.9 nM.

“GUUACUAUUGUGAGGAUAUACUUAUUAAUAAAUAGGUAGAAGGCACAUGAGGAUCACCCAUGUUUUAACUUUUC [lam1] (Eterna round: R97, puzzle: Brourd's mod of Exclusion 4)”: the “apparent KD of MS2 coat protein” value amounted to 96.8 nM (input ligand: FMN 200 uM) and 24.9 nM (input ligand: none).

With “GUUAGACAUGAGGAUCACCCAUGUGAGGAUAUGAUGCGAAUAAAGAAUGAAGUAAGCAUCAGAAGGCACAUAUG [Mat - Mod of Hyphema D30] (puzzle: Exclusion 1)”, the “apparent KD of MS2 coat protein” value under setting [2] was 235 nM.

For “GUUAGUAUCUAGGAUAUCUAGUACAUAGUAUCUAGAGAAGGAGAUACAUGAGGAUCACCCAUGUUCUGUGAUCU [Exclusion 6 - 2:c] (puzzle: Exclusion 6)”, the “apparent KD of MS2 coat protein” value was determined as 53 nM under setting [3], 205 nM under setting [2] and 234 nM under setting [4].

For “GUUAUCGGAGGAUAUACAUGAGGAUCACCCAUGUGCCAGUAUGUACUAAUCCUUUAGAGUAGAAGGUCGAUAGG [Eternabot (L1) Solution 72] (Eterna round: R97, puzzle: Exclusion 3)”, the “apparent KD of MS2 coat protein” value is, setting by setting: (input ligand: FMN 200 uM) 198 nM; (input ligand: none) 118 nM.

Consider “GUUAUGCGGCAGGAUAUCCAUCCGCGGUAUGAUGGAGAAGGGCCGACAUGAGGAUCACCCAUGUGCGUCCUAGG [jl-ex6-4.49 ViennaUCT mod] (Eterna round: R97, puzzle: Exclusion 6)”, for which the “apparent KD of MS2 coat protein” value reads like this: (input ligand: FMN 200 uM) 155 nM; (input ligand: none) 53 nM.
